From IntAct's records for PubMed 25114243

B1: Ras-related protein Rab-5C (Homo sapiens), P51148 (parent)
chain: MAGRGGAARPNGPAAGNKICQFKLVLLGESAVGKSSLVLRFVKGQFHEYQESTIGAAFLTQTVCLDDTTVKFEIWDTAGQERYHSLAPMYYRGAQAAIVVYDITNTDTFARAKNWVKELQRQASPNIVIALAGNKADLASKRAVEFQEAQAYADDNSLLFMETSAKTAMNVNEIFMAIAKKLPKNEPQNATGAPGRNRGVDLQENNPASRSQCCSN
partner: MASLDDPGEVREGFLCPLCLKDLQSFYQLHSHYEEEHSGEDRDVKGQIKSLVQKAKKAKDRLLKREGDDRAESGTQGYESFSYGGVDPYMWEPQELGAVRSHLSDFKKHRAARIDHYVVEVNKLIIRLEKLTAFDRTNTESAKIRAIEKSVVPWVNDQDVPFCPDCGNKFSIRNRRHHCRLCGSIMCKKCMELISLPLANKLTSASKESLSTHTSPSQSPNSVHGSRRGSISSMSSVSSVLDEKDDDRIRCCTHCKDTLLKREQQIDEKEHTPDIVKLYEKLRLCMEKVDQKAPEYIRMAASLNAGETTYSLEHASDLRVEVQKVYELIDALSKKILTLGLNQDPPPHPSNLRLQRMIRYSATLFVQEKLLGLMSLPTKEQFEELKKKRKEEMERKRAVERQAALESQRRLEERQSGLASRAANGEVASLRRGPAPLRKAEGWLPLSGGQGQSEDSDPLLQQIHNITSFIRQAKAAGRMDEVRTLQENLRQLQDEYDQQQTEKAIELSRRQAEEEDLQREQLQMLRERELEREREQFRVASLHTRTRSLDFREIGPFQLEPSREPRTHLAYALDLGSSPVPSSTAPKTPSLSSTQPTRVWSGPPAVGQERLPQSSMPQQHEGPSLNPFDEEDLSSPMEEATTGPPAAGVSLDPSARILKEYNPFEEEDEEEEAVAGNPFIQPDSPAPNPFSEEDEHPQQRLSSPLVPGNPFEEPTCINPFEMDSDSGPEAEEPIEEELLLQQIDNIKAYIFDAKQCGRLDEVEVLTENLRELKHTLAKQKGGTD
B2: Ras-related protein Rab-5C (Homo sapiens), P51148 (parent)
chain: B1 chain
B3: Ras-related protein Rab-5C (Homo sapiens), P51148 (parent)
chain: B1 chain
partner: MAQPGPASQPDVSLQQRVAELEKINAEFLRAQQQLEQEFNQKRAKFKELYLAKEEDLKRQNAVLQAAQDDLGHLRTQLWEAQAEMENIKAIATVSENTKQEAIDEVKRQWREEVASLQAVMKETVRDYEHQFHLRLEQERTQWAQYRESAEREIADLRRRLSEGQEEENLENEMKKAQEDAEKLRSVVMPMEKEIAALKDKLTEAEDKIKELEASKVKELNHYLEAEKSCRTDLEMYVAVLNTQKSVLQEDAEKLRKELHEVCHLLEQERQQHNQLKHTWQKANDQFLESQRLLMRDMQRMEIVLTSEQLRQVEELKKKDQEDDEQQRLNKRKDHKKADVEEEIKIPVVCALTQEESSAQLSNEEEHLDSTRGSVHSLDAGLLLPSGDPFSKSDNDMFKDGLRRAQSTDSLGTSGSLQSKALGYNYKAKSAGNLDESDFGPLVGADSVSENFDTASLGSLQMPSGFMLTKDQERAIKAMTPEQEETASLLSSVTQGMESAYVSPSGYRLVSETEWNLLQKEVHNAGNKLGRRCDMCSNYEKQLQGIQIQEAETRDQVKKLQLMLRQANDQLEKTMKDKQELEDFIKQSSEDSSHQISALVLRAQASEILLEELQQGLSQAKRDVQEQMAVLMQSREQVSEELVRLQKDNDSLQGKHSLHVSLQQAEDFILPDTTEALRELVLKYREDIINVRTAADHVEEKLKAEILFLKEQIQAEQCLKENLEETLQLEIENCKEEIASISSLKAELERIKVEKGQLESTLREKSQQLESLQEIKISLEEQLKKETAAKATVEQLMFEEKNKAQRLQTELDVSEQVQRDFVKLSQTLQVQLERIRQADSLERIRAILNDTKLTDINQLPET

Variants of: B1
Conditions: with rbns5_human RBSN

Variant	effect of a mutation on the interaction
R92A	decreasing interaction

Variants of: B2
Conditions: with eea1_human EEA1, Q15075
Chain of eea1_human EEA1, Q15075 (Q15075 whole entry): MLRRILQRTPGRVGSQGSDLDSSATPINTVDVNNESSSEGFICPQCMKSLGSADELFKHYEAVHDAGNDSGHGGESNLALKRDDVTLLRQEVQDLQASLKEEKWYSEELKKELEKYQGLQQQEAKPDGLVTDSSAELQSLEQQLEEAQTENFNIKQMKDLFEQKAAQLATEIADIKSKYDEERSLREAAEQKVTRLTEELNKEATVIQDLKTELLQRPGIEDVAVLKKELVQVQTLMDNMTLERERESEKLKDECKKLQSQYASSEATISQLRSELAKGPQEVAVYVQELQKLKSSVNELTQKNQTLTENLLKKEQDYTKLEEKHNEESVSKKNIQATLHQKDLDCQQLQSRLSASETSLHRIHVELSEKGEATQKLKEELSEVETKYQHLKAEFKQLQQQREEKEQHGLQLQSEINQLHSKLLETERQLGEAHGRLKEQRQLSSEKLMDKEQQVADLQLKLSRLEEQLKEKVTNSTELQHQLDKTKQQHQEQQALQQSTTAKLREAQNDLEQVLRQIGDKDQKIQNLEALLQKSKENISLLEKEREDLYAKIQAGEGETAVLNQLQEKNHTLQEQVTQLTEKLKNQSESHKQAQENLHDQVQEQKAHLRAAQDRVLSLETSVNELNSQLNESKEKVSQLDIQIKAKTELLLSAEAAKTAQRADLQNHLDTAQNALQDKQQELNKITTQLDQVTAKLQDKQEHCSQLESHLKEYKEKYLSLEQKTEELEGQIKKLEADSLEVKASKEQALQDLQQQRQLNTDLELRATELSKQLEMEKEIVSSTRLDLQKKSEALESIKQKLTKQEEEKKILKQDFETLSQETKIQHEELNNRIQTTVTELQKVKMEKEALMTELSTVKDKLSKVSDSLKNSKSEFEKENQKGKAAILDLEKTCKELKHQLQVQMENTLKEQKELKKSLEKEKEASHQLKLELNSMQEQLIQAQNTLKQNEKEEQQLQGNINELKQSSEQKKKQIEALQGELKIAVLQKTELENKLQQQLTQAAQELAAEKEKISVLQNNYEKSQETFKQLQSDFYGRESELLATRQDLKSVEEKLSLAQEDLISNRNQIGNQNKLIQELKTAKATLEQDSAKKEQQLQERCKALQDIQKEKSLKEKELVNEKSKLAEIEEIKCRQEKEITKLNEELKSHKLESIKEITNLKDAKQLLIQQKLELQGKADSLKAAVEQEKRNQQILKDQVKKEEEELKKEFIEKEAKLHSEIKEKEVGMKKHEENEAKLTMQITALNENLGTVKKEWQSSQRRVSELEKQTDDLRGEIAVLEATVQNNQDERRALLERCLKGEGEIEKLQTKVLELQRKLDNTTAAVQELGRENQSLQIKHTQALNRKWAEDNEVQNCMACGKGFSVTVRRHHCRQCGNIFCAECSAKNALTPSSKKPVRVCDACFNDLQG

Variant	effect of a mutation on the interaction
R92A	decreasing interaction

Variants of: B3
Conditions: with rabe1_human RABEP1, Q15276

Variant	effect of a mutation on the interaction
R92A	with no effect
